One data set concerns biotinyl-Leu-oxazolone. Description: self-aminoacylation, catalytic enhancement (BLO) (fold over background); higher = more active; k-Seq, kA / k0A0; sequences stand for … in GGGAAUGGAUCCACAUCUACGAAUUC…UUCACUGCAGACUUGACGAAGCUG
The essentials: (§1)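 Mutagenized RNA pools with a 21-nt variable region (0.43 μM) were reacted with each biotinyl-aminoacyl-oxazolone at 2–1250 μM for 90 minutes at room temperature, in 50 μL HEPES/NaCl/KCl/MgCl2/CaCl2 buffer containing 5% acetonitrile at pH 6.9–7.0. RNA captured on streptavidin was quantified by triplicate qPCR and by Illumina sequencing. The fraction reacted for each sequence was fit to a pseudo-first-order model with bootstrapping, and catalytic enhancement is the median kA divided by the uncatalyzed rate, taken as the low-activity peak of a bimodal Gaussian fit.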

The test system of the next data set is biotinyl-Trp-oxazolone. Description: self-aminoacylation, catalytic enhancement (BWO) (fold over background); higher = more active; k-Seq, kA / k0A0; sequences stand for … in GGGAAUGGAUCCACAUCUACGAAUUC…UUCACUGCAGACUUGACGAAGCUG
The essentials: as §1

Another data set has as its system biotinyl-Phe-oxazolone. Description: self-aminoacylation, catalytic enhancement (BFO) (fold over background); higher = more active; k-Seq, kA / k0A0; sequences stand for … in GGGAAUGGAUCCACAUCUACGAAUUC…UUCACUGCAGACUUGACGAAGCUG
The method, boiled down:
as §1

The next data set deals with biotinyl-Val-oxazolone. Description: self-aminoacylation, catalytic enhancement (BVO) (fold over background); higher = more active; k-Seq, kA / k0A0; sequences stand for … in GGGAAUGGAUCCACAUCUACGAAUUC…UUCACUGCAGACUUGACGAAGCUG
The essentials: as §1

For the next data set, the system named is biotinyl-Met-oxazolone. Description: self-aminoacylation, catalytic enhancement (BMO) (fold over background); higher = more active; k-Seq, kA / k0A0; sequences stand for … in GGGAAUGGAUCCACAUCUACGAAUUC…UUCACUGCAGACUUGACGAAGCUG
The method, boiled down: as §1

The subject of the next data set is biotinyl-Ile-oxazolone. Description: self-aminoacylation, catalytic enhancement (BIO) (fold over background); higher = more active; k-Seq, kA / k0A0; sequences stand for … in GGGAAUGGAUCCACAUCUACGAAUUC…UUCACUGCAGACUUGACGAAGCUG
The method, boiled down:
as §1

Variants at the floor of the assay were thinned out.

The text below walks through data of the supplement of paper PMC9233669.

As to “CUACUUCAUACAAUCGGUAUG [Fam1A.1 aminoacylation ribozyme variant]”, the self-aminoacylation was found to be 0.468 with biotinyl-Leu-oxazolone; 0.34 in the data set on biotinyl-Trp-oxazolone; 0.628 in the data set on biotinyl-Phe-oxazolone; 0.731 in the data set on biotinyl-Val-oxazolone; 0.508 with biotinyl-Met-oxazolone; 0.431 in the data set on biotinyl-Ile-oxazolone.
Turning to “CUACUUCAUACAAUCGGUCUA [Fam1A.1 aminoacylation ribozyme variant]”, the self-aminoacylation worked out at 0.68 with biotinyl-Leu-oxazolone; 0.555 in the data set with biotinyl-Trp-oxazolone; 0.751 in the data set on biotinyl-Phe-oxazolone; 0.703 in the data set with biotinyl-Val-oxazolone; 0.926 with biotinyl-Met-oxazolone; 0.835 in the data set with biotinyl-Ile-oxazolone.
Regarding “CUACUUCAUACAAUCGGUCUG [Fam1A.1 aminoacylation ribozyme variant]”, the self-aminoacylation in the data set on biotinyl-Leu-oxazolone turned out to be 0.643; with biotinyl-Trp-oxazolone it was 0.553; with biotinyl-Phe-oxazolone it was 0.808; in the data set on biotinyl-Val-oxazolone, 0.743; in the data set on biotinyl-Met-oxazolone, 0.668; in the data set with biotinyl-Ile-oxazolone it was 0.707.
Regarding “CUACUUCAUACGAUCGGUCUG [Fam1A.1 aminoacylation ribozyme variant]”, the self-aminoacylation was 0.526 with biotinyl-Leu-oxazolone; 0.824 with biotinyl-Trp-oxazolone; 0.597 in the data set with biotinyl-Phe-oxazolone; 0.852 with biotinyl-Val-oxazolone; 0.624 in the data set with biotinyl-Met-oxazolone; 0.61 in the data set on biotinyl-Ile-oxazolone.
Consider “CUACUUCCAACAAGCGGUCUG [Fam1A.1 aminoacylation ribozyme variant]”, for which the self-aminoacylation in the data set on biotinyl-Leu-oxazolone turned out to be 0.79; with biotinyl-Trp-oxazolone, 0.678; with biotinyl-Phe-oxazolone, 0.744; in the data set on biotinyl-Val-oxazolone it was 0.95; with biotinyl-Met-oxazolone, 1.04; in the data set on biotinyl-Ile-oxazolone, 1.21.
For the sequence “CUACUUCCAACAAUCGGUAUG [Fam1A.1 aminoacylation ribozyme variant]”, the self-aminoacylation in the data set with biotinyl-Leu-oxazolone was found to be 0.663; in the data set with biotinyl-Trp-oxazolone, 0.533; in the data set on biotinyl-Phe-oxazolone, 0.634; in the data set on biotinyl-Val-oxazolone it was 0.782; with biotinyl-Met-oxazolone it was 0.611; in the data set on biotinyl-Ile-oxazolone it was 0.654.
For the sequence “CUACUUCCAACAAUCGGUCGG [Fam1A.1 aminoacylation ribozyme variant]”, the self-aminoacylation in the data set with biotinyl-Leu-oxazolone worked out at 1.03; with biotinyl-Trp-oxazolone it was 1.28; with biotinyl-Phe-oxazolone it was 0.78; in the data set on biotinyl-Val-oxazolone it was 1.07; in the data set on biotinyl-Met-oxazolone it was 1.01; in the data set on biotinyl-Ile-oxazolone, 1.04.
With “CUACUUCCAACAAUCGGUCUA [Fam1A.1 aminoacylation ribozyme variant]”, the self-aminoacylation was determined as 0.701 in the data set on biotinyl-Leu-oxazolone; 0.598 in the data set with biotinyl-Trp-oxazolone; 0.924 in the data set with biotinyl-Phe-oxazolone; 0.892 in the data set with biotinyl-Val-oxazolone; 0.632 in the data set with biotinyl-Met-oxazolone; 0.839 with biotinyl-Ile-oxazolone.
On to “CUACUUCCAACAAUCGGUUUG [Fam1A.1 aminoacylation ribozyme variant]”, for which the self-aminoacylation in the data set on biotinyl-Leu-oxazolone was 0.645; in the data set with biotinyl-Trp-oxazolone it was 0.678; with biotinyl-Phe-oxazolone, 0.87; in the data set on biotinyl-Val-oxazolone, 0.76; in the data set on biotinyl-Met-oxazolone, 0.713; in the data set on biotinyl-Ile-oxazolone it was 0.747.
In the case of “CUACUUCCAACAAUCUGUCUG [Fam1A.1 aminoacylation ribozyme variant]”, the self-aminoacylation with biotinyl-Leu-oxazolone came to 0.59; in the data set on biotinyl-Trp-oxazolone, 0.438; in the data set with biotinyl-Phe-oxazolone, 0.746; with biotinyl-Val-oxazolone it was 0.757; with biotinyl-Met-oxazolone, 0.488; with biotinyl-Ile-oxazolone it was 0.776.
With “CUACUUCCAACUAUCGGUCUG [Fam1A.1 aminoacylation ribozyme variant]”, the self-aminoacylation in the data set on biotinyl-Leu-oxazolone is 0.942; in the data set with biotinyl-Trp-oxazolone, 0.744; in the data set on biotinyl-Phe-oxazolone it was 1.08; in the data set with biotinyl-Val-oxazolone, 0.92; in the data set with biotinyl-Met-oxazolone, 0.833; with biotinyl-Ile-oxazolone, 0.81.
Turning to “CUACUUCCAAGAAUCGGUCUG [Fam1A.1 aminoacylation ribozyme variant]”, the self-aminoacylation with biotinyl-Leu-oxazolone is 0.762; in the data set on biotinyl-Trp-oxazolone it was 1.04; with biotinyl-Phe-oxazolone it was 0.97; in the data set on biotinyl-Val-oxazolone, 0.776; with biotinyl-Met-oxazolone, 0.934; with biotinyl-Ile-oxazolone, 0.838.
Regarding “CUACUUCGAACAAUCGGUCUC [Fam1A.1 aminoacylation ribozyme variant]”, the self-aminoacylation in the data set with biotinyl-Leu-oxazolone was 0.648; in the data set with biotinyl-Trp-oxazolone, 0.507; with biotinyl-Phe-oxazolone, 0.828; with biotinyl-Val-oxazolone, 0.683; in the data set with biotinyl-Met-oxazolone it was 0.66; in the data set with biotinyl-Ile-oxazolone it was 0.781.
Consider “CUACUUCGAACAAUCGGUCUG [Fam1A.1 aminoacylation ribozyme variant]”, for which the self-aminoacylation with biotinyl-Leu-oxazolone worked out at 0.614; in the data set with biotinyl-Trp-oxazolone it was 0.566; in the data set with biotinyl-Phe-oxazolone, 0.684; in the data set on biotinyl-Val-oxazolone, 0.684; in the data set with biotinyl-Met-oxazolone, 0.618; in the data set with biotinyl-Ile-oxazolone it was 0.623.
Turning to “CUACUUCGAACAAUCGGUUUG [Fam1A.1 aminoacylation ribozyme variant]”, the self-aminoacylation in the data set with biotinyl-Leu-oxazolone worked out at 0.526; in the data set with biotinyl-Trp-oxazolone, 0.404; in the data set on biotinyl-Phe-oxazolone, 0.591; in the data set with biotinyl-Val-oxazolone, 0.717; in the data set with biotinyl-Met-oxazolone it was 0.581; in the data set with biotinyl-Ile-oxazolone, 0.649.
Consider “CUACUUCGAUCAAUCGGUCUG [Fam1A.1 aminoacylation ribozyme variant]”, for which the self-aminoacylation in the data set on biotinyl-Leu-oxazolone turned out to be 0.585; with biotinyl-Trp-oxazolone, 0.434; with biotinyl-Phe-oxazolone, 0.778; in the data set on biotinyl-Val-oxazolone, 0.584; with biotinyl-Met-oxazolone, 0.528; in the data set on biotinyl-Ile-oxazolone, 0.591.
“CUACUUCUAACAAUCAGUCUG [Fam1A.1 aminoacylation ribozyme variant]”: the self-aminoacylation was 0.603 with biotinyl-Leu-oxazolone; 0.502 with biotinyl-Trp-oxazolone; 0.82 in the data set with biotinyl-Phe-oxazolone; 0.689 in the data set with biotinyl-Val-oxazolone; 0.524 with biotinyl-Met-oxazolone; 0.663 in the data set with biotinyl-Ile-oxazolone.
Regarding “CUACUUCUAACUAUCGGUCUG [Fam1A.1 aminoacylation ribozyme variant]”, the self-aminoacylation in the data set on biotinyl-Leu-oxazolone is 0.628; with biotinyl-Trp-oxazolone, 0.65; with biotinyl-Phe-oxazolone, 0.796; with biotinyl-Val-oxazolone, 0.841; in the data set on biotinyl-Met-oxazolone, 0.766; with biotinyl-Ile-oxazolone it was 0.734.
On to “CUACUUCUUACAAUCGGUCUG [Fam1A.1 aminoacylation ribozyme variant]”, for which the self-aminoacylation in the data set on biotinyl-Leu-oxazolone turned out to be 0.624; in the data set on biotinyl-Trp-oxazolone, 0.524; in the data set on biotinyl-Phe-oxazolone it was 0.695; in the data set with biotinyl-Val-oxazolone, 0.707; in the data set on biotinyl-Met-oxazolone it was 0.812; in the data set on biotinyl-Ile-oxazolone, 0.767.
With “CUACUUGAAAAAAUCGGUCUG [Fam1A.1 aminoacylation ribozyme variant]”, the self-aminoacylation in the data set with biotinyl-Leu-oxazolone is 0.801; in the data set on biotinyl-Trp-oxazolone, 0.84; in the data set on biotinyl-Phe-oxazolone, 0.472; with biotinyl-Val-oxazolone, 0.822; in the data set with biotinyl-Met-oxazolone, 0.781; in the data set on biotinyl-Ile-oxazolone it was 0.862.
Regarding “CUACUUGAAACAAUAGGUCUG [Fam1A.1 aminoacylation ribozyme variant]”, the self-aminoacylation is 1.13 in the data set with biotinyl-Leu-oxazolone; 0.841 in the data set with biotinyl-Trp-oxazolone; 0.837 in the data set with biotinyl-Phe-oxazolone; 1.05 in the data set with biotinyl-Val-oxazolone; 1.09 in the data set on biotinyl-Met-oxazolone; 1.06 in the data set with biotinyl-Ile-oxazolone.
As to “CUACUUGAAACAAUCGGUAUG [Fam1A.1 aminoacylation ribozyme variant]”, the self-aminoacylation was found to be 0.838 with biotinyl-Leu-oxazolone; 0.504 in the data set on biotinyl-Trp-oxazolone; 0.5 with biotinyl-Phe-oxazolone; 0.699 with biotinyl-Val-oxazolone; 0.67 in the data set on biotinyl-Met-oxazolone; 0.654 in the data set with biotinyl-Ile-oxazolone.
For the sequence “CUACUUGAAACAAUCGGUCGG [Fam1A.1 aminoacylation ribozyme variant]”, the self-aminoacylation was 1.13 with biotinyl-Leu-oxazolone; 0.589 in the data set with biotinyl-Trp-oxazolone; 0.733 with biotinyl-Phe-oxazolone; 0.949 in the data set with biotinyl-Val-oxazolone; 0.994 in the data set with biotinyl-Met-oxazolone; 0.997 in the data set on biotinyl-Ile-oxazolone.
